Assay: soluble on expression in E. coli; label from the status in PepcDB or PDB records

| Sequence | soluble on expression in E. coli |
| --- | --- |
| MADETELKRLYWHSRRGMLELDVLLVPFVQEVYPGLDAEDQARFRKLLECEDQDMFGWFMQRGEPEDADLRRMVRMILDRVQPD | not soluble |
| MCELLGMSANVPTDICFSFTGLVQRGGGTGPHKDGWGITFYEGKGCRTFKDPQPSFNSPIAKLVQDYPIKSCSVVAHIRQANRGEVALENTHPFTRELWGRNWTYAHNGQLTGYKSLETGNFRPVGETDSEKAFCWLLHKLTQRYPRTPGNMAAVFKYIASLADELRAKGVFNMLLSDGRYVMAYCSTNLHWITRRAPFGVATLLDQDVEIDFSSQTTPNDVVTVIATQPLTGNETWQKIMPGEWRLFCLGERVV | not soluble |
| MGSSHHHHHHSSGLVPRGSHMASASAAGGQQSFDLLVIGGGSGGLACAKEAAQLGKKVAVADYVEPSPRGTKWGLGGTCVNVGCIPKKLMHQAALLGGMIRDAHHYGWEVAQPVQHNWKTMAEAVQNHVKSLNWGHRVQLQDRKVKYFNIKASFVDEHTVRGVDKGGKATLLSAEHIVIATGGRPRYPTQVKGALEYGITSDDIFWLKESPGKTLVVGASYVALECAGFLTGIGLDTTVMMRSIPLRGFDQQMSSLVTEHMESHGTQFLKGCVPSHIKKLPTNQLQVTWEDHASGKEDTGTFDTVLWAIGRVPETRTLNLEKAGISTNPKNQKIIVDAQEATSVPHIYAIGDVAEGRPELTPTAIKAGKLLAQRLFGKSSTLMDYSNVPTTVFTPLEYGCVGLSEEEAVALHGQEHVEVYHAYYKPLEFTVADRDASQCYIKMVCMREPPQLVLGLHFLGPNAGEVTQGFALGIKCGASYAQVMQTVGIHPTCSEEVVKLHISKRSGLEPTVTGCCG | soluble |
| MIFDHGKKLMKRVERYSGCSSGSLVAAMFIFNPEKLVFLVSFRKTKGRLPLFSLFLLNFRNLCILSISEAVEEIYKMADEVNDKTLGAMSPGFVISDRLRKVVEKFLPDDVAKANDLLFVSVTKLKTWKNELISNFESKIDLIDCLMASCYHPMYSSGLNGKAPILRGEAYIDGGYSNMIPEFLDMRTVTVSAFAGDADICPVEKSALFNDFMFAFFNQNMKLTLSNMKRVTNALFPPTRAILQEYFNAGARDAEKLLKDSGFYE | not soluble |
| MGSDKIHHHHHHMKIVHTADWHLGKILNGKQLLEDQKYILTQFKQHMEKEQPDLIVIAGDLYDTSYPSKEAIGLLEETIEYLNIELKIPIIMISGNHDGRERLNYGSKWFENNQLYIRTQLENIDDPIELSGVQFFTLPFATVSEVQNYFKDKQIETYQQALNECLEQMSSSIDNNKVNILIGHLTIEGGKTSDSERPLTIGTVESVDMHSFRLFDYVMLGHLHHPFSINNSFIKYSGSILQYSFSEVNQSKGYRVLDIENNQLLNETFVPLKPLRELEVIEGDYEDIIQERIKVKNKNNYFHFKLTNVSHITDPMMKLKQIYPNILALSNVVFDHSENFSHVEIKKQDDQTIIENFYKNMTDQHLSQVQSDKIKHLLSFILDREG | not soluble |
| MGYLHIDGRGMKPNGGSRHNPLEAETIAAWLVAHKDDIERHYGEPLYKVVGVVTPFSAQVNAIKMSLRKLEINGKDEQGLLTVGTVHSLQGAERAIVLFSPVYSKHEDGRFLDSNSTILNVAVSRAKDSFLVFGDMDLIEMQPAFSPRGLLAKYLFSSDNNALQFEFQKRQDLISAHTQISTLHGVEQHDEFLNKTLAGAQKKITIISPWLSWQKVEQTGFLASMALARSRGIDITVVTDKNCNIAHVDDDKRQEKQHLLNDAVEKLNKMGIATKLVNRVHSKIVIEDEELLCVGSFNWFSATREDKYQRYDTSLVYRGEGVKNEIKAIYGSLDQRQLMGHHHHHHSH | not soluble |
| MGSDKIHHHHHHMENSKVSLKIDVLVAEIGSTTTVVNAFHDINTNNPIFLGQGQAPTTVFEGGDVRNGLSGAIKDLANKLSVDDIEYNDMFATSSAAGGLKMTVHGLVYDMTVKAAKEAALGAGAVIRQITSGRIKRTDLNKIKEINPNIILIAGGVDYGERDTAIYNAEMIASMNLGIPVIYAGNVENQEEIRLIFEDTNYKLYITENVYPKIDLLNIEPTRRIIQSVFEEHITTAPGMKYIKEMVNENITPTPGAVMEASKLLYKNIGDLLTLDVGGATTDVHSVTDGSDYINKILVNPEPTAKRSVEGDLGVYVNMKNIVEVIGKENLQSELSIDIDAVIENYPPIPKSKEEILFVERLTKEAVVKAMLRHSGKIRNIYGTTGKVKIAEGKDLTEVRYIVGTGGALTRLPSRIEILDNMLKYNKNNELLFPKEKTKILIDNDYIMASMGVLSKKYEEASLKLLLKSLNFEEERLCILG | not soluble |

From the DeepSol protein solubility set
